The supplement of paper PMC11316812
± gives the standard deviation of the averaged measurements.

What was measured:
hTERT-HMEC = test: percentage of EdU-negative (G0-arrested) nuclei per well, 72 h; higher = more G0 arrest; details: reference: sequence is the full UniProt precursor, the tested protein was the secreted form or ectodomain
MCF7 = test: as above; details: reference: sequence is the full UniProt precursor, the tested protein was the secreted form or ectodomain
[1] = protein concentration 0.0225 µM
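Also: secreted proteins added to cultured cells, EdU pulse at the end, nuclei found by Hoechst imaging, EdU status from nuclear versus surrounding ring intensity ratio, PBS as neutral control.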

Row | Sequence | percentage of EdU-negative (hTERT-HMEC; [1]) [%] | percentage of EdU-negative (hTERT-HMEC; protein concentration 0.225 µM) [%] | percentage of EdU-negative (MCF7; [1]) [%] | percentage of EdU-negative (MCF7; protein concentration 0.225 µM) [%] | percentage of EdU-negative (hTERT-HMEC; protein concentration 0.007 µM) [%] | percentage of EdU-negative (hTERT-HMEC; protein concentration 0.07 µM) [%] | percentage of EdU-negative (MCF7; protein concentration 0.007 µM) [%] | percentage of EdU-negative (MCF7; protein concentration 0.07 µM) [%]
1 | MRLPGVPLARPALLLLLPLLAPLLGTGAPAELRVRVRLPDGQVTEESLQADSDADSISLELRKPDGTLVSFTADFKKDVKVFRALILGELEKGQSQFQALCFVTQLQHNEIIPSEAMAKLRQKNPRAVRQAEEVRGLEHLHMDVAVNFSQGALLSPHLHNVCAEAVDAIYTRQEDVRFWLEQGVDSSVFEALPKASEQAELPRCRQVGDHGKPCVCRYGLSLAWYPCMLKYCHSRDRPTPYKCGIRSCQKSYSFDFYVPQRQLCLWDEDPYPG [Q86UD1] | 4.6 ± 0.4 | 14.9 ± 2 | 26.92 ± 0.26 | 29.75 ± 0.17 |  |  |  | 
2 | MRLPLLLVFASVIPGAVLLLDTRQFLIYNEDHKRCVDAVSPSAVQTAACNQDAESQKFRWVSESQIMSVAFKLCLGVPSKTDWVAITLYACDSKSEFQKWECKNDTLLGIKGEDLFFNYGNRQEKNIMLYKGSGLWSRWKIYGTTDNLCSRGYEAMYTLLGNANGATCAFPFKFENKWYADCTSAGRSDGWLWCGTTTDYDTDKLFGYCPLKFEGSESLWNKDPLTSVSYQINSKSALTWHQARKSCQQQNAELLSITEIHEQTYLTGLTSSLTSGLWIGLNSLSFNSGWQWSDRSPFRYLNWLPGSPSAEPGKSCVSLNPGKNAKWENLECVQKLGYICKKGNTTLNSFVIPSESDVPTHCPSQWWPYAGHCYKIHRDEKKIQRDALTTCRKEGGDLTSIHTIEELDFIISQLGYEPNDELWIGLNDIKIQMYFEWSDGTPVTFTKWLRGEPSHENNRQEDCVVMKGKDGYWADRGCEWPLGYICKMKSRSQGPEIVEVEKGCRKGWKKHHFYCYMIGHTLSTFAEANQTCNNENAYLTTIEDRYEQAFLTSFVGLRPEKYFWTGLSDIQTKGTFQWTIEEEVRFTHWNSDMPGRKPGCVAMRTGIAGGLWDVLKCDEKAKFVCKHWAEGVTHPPKPTTTPEPKCPEDWGASSRTSLCFKLYAKGKHEKKTWFESRDFCRALGGDLASINNKEEQQTIWRLITASGSYHKLFWLGLTYGSPSEGFTWSDGSPVSYENWAYGEPNNYQNVEYCGELKGDPTMSWNDINCEHLNNWICQIQKGQTPKPEPTPAPQDNPPVTEDGWVIYKDYQYYFSKEKETMDNARAFCKRNFGDLVSIQSESEKKFLWKYVNRNDAQSAYFIGLLISLDKKFAWMDGSKVDYVSWATGEPNFANEDENCVTMYSNSGFWNDINCGYPNAFICQRHNSSINATTVMPTMPSVPSGCKEGWNFYSNKCFKIFGFMEEERKNWQEARKACIGFGGNLVSIQNEKEQAFLTYHMKDSTFSAWTGLNDVNSEHTFLWTDGRGVHYTNWGKGYPGGRRSSLSYEDADCVVIIGGASNEAGKWMDDTCDSKRGYICQTRSDPSLTNPPATIQTDGFVKYGKSSYSLMRQKFQWHEAETYCKLHNSLIASILDPYSNAFAWLQMETSNERVWIALNSNLTDNQYTWTDKWRVRYTNWAADEPKLKSACVYLDLDGYWKTAHCNESFYFLCKRSDEIPATEPPQLPGRCPESDHTAWIPFHGHCYYIESSYTRNWGQASLECLRMGSSLVSIESAAESSFLSYRVEPLKSKTNFWIGLFRNVEGTWLWINNSPVSFVNWNTGDPSGERNDCVALHASSGFWSNIHCSSYKGYICKRPKIIDAKPTHELLTTKADTRKMDPSKPSSNVAGVVIIVILLILTGAGLAAYFFYKKRRVHLPQEGAFENTLYFNSQSSPGTSDMKDLVGNIEQNEHSVI |  |  |  |  | 4.48 ± 0.71 | 5.07 ± 0.13 | 24.1 ± 0.79 | 24 ± 0.4
3 | MRLPRRAALGLLPLLLLLPPAPEAAKKPTPCHRCRGLVDKFNQGMVDTAKKNFGGGNTAWEEKTLSKYESSEIRLLEILEGLCESSDFECNQMLEAQEEHLEAWWLQLKSEYPDLFEWFCVKTLKVCCSPGTYGPDCLACQGGSQRPCSGNGHCSGDGSRQGDGSCRCHMGYQGPLCTDCMDGYFSSLRNETHSICTACDESCKTCSGLTNRDCGECEVGWVLDEGACVDVDECAAEPPPCSAAQFCKNANGSYTCEECDSSCVGCTGEGPGNCKECISGYAREHGQCADVDECSLAEKTCVRKNENCYNTPGSYVCVCPDGFEETEDACVPPAEAEATEGESPTQLPSREDL [Q6UXH1] | 4.4 ± 0.85 | 6.12 ± 0.13 | 23.9 ± 1.1 | 26 ± 1.1 |  |  |  | 
